From paper PMC5800818, “A Numb–Mdm2 fuzzy complex reveals an isoform-specific involvement of Numb in breast cancer” (The Journal of Cell Biology, 2018)
Blank lines part the entries; values can stand above or below the binder they belong to. Non-standard residues stand in square brackets, D forms with d. No end group written: not given here. pY = N[C@@H](Cc1ccc(OP(=O)(O)O)cc1)C(=O)O

Assays:
Settings in all cases: both partners purified
[1] = target: T1, Numb-PTBi (Numb^20–175), purified (human, UniProt P49757 20-175); experiment: crystal structure; Numb-PTBi with a 1.3 molar excess of GPpY peptide; hanging drops at 20 °C, 25% PEG 3350, 0.2 M lithium sulfate, 0.1 M Bis-Tris pH 6; space groups F222 and P212121
T1 construct: For NMR the protein was isotope-labelled; source: E. coli BL21 Rosetta pLysS, purified (NTA beads, Superdex-200)
T1 sequence (looked up): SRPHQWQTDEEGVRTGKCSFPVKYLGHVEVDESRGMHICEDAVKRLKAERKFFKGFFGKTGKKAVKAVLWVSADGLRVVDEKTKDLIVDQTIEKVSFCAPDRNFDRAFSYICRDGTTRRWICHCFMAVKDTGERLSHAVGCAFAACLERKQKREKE

[2] = target: T2, Numb PTBi (Numb^20–175), His fusion (human, UniProt P49757 20-175); experiment: pull-down; GST-Mdm2 fragments (1 µM) on GSH beads, purified Numb fragments (5 µM in Fig. 1 F; 2 and 4 µM or 1 and 2 µM in Fig. 6), 2 h at 4 °C, 10 mM Hepes pH 7.5, 0.15 M NaCl, 5% glycerol, 0.1% Tween-20; Coomassie staining
T2 construct: source: bacterially expressed as His fusion, purified
T2 sequence (looked up): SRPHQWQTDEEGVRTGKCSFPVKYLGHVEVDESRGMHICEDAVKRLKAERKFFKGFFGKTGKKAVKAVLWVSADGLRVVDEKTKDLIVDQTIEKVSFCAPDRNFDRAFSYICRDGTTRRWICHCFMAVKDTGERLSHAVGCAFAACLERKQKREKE

[3] = target: T1, Numb-PTBi (Numb^20–175), purified; experiment: as above
[4] = target: T3, rhodamine-labeled Mdm2^216–302 (human, UniProt Q00987-11 216-302, rhodamine label (site not stated)); experiment: fluorescence polarisation; 50 nM rhodaminated Mdm2 216–302 with increasing concentrations of the ligand; 10 mM Tris-HCl pH 7.5, 0.15 M NaCl, 0.5 mM EDTA, 1 mM DTT
T3 construct: as m32 with the label; source: purified, rhodaminated in vitro
T3 sequence (Q00987 210-296): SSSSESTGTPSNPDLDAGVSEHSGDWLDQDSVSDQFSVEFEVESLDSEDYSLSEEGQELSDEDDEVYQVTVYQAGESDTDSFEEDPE

- binding result [1]: binds
B1: GPpY phosphopeptide (AYIGPpYL) (peptide)
peptide: AYIGP[pY]L
notes: also called GPpY peptide; source: synthetic peptide (United Biosystems)

- binding result [2]: binds
- binding result [3]: binds
B2: GST-Mdm2^250–290 (domain or fragment, human, UniProt Q00987-11 250-290, looked up)
chain: QFSVEFEVESLDSEDYSLSEEGQELSDEDDEVYQVTVYQAG
notes: Mdm2 residues 250–290, a short stretch of the acidic domain; also called minimal Mdm2 fragment; source: E. coli BL21 Rosetta, purified (Glutathione Sepharose)

- fold reduction of binding affinity against PTBi [4]: ~30 fold
B3: Numb-PTBo, purified (domain or fragment)
chain: SRPHQWQTDEEGVRTGKCSFPVKYLGHVEVDESRGMHICEDAVKRLKATGKKAVKAVLWVSADGLRVVDEKTKDLIVDQTIEKVSFCAPDRNFDRAFSYICRDGTTRRWICHCFMAVKDTGERLSHAVGCAFAACLERKQKREKE
